Data published in paper PMC8626586, “Structure of a bacterial α-1,2-glucosidase defines mechanisms of hydrolysis and substrate specificity in GH65 family hydrolases” (The Journal of Biological Chemistry, 2021).

What was measured:
FjGH65A [1] = target: T1, FjGH65A (Flavobacterium johnsoniae, UniProt A5FBJ5); experiment: X-ray crystal structure of the complex, […] Å; format: binding; conditions: crystal cryoprotected with 30% (w/v) glucose; four sites: subsites -1, +1, +2 and linker region
T1 construct: gene Fjoh_4428; residues 24-681, signal peptide removed, N-terminal His6 tag (pET28a), E. coli BL21(DE3); hexamer (433 kDa by gel filtration)

[2] = target: FjGH65A (Fjoh_4428), GH65 α-1,2-glucosidase from Flavobacterium johnsoniae (Flavobacterium johnsoniae); experiment: SEC; gel filtration on HiPrep 16/60 Sephacryl S-200 HR, 20 mM sodium citrate buffer (pH 6.0) with 150 mM NaCl; column calibrated with thyroglobulin, ferritin, aldolase, conalbumin and ovalbumin
[3] = target: FjGH65A (Fjoh_4428), GH65 α-1,2-glucosidase from Flavobacterium johnsoniae (Flavobacterium johnsoniae); experiment: crystal structure; space group C2, three monomers (MolA, MolB, MolC) in the asymmetric unit; hexamer by the crystallographic two-fold axis, PISA analysis; native 1.54 Å and glucose complex 1.40 Å
FjGH65A [4] = target: T2, FjGH65A (Flavobacterium johnsoniae, UniProt A5FBJ5, E472Q); experiment: hydrolysis activity; format: biochemical; conditions: general acid catalyst mutant
T2 construct: gene Fjoh_4428; residues 24-681, signal peptide removed, N-terminal His6 tag (pET28a), E. coli BL21(DE3); hexamer (433 kDa by gel filtration)
T2 sequence (A5FBJ5 24-681 E472Q): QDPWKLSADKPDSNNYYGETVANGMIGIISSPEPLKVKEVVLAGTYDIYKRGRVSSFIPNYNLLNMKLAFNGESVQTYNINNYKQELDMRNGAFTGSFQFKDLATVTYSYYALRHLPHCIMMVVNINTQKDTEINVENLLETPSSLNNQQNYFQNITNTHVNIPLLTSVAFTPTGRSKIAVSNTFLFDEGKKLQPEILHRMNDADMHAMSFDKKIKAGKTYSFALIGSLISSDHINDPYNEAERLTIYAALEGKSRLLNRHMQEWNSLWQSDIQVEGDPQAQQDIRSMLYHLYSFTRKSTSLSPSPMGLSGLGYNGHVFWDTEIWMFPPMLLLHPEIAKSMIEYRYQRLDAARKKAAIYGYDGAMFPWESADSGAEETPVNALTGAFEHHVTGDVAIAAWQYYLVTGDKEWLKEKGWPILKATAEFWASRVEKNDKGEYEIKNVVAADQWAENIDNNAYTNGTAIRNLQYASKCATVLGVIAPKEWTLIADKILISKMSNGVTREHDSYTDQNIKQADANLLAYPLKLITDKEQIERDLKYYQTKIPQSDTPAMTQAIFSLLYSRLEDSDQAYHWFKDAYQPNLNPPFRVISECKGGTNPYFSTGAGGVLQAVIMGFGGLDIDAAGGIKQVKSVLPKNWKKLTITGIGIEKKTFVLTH

FjGH65A [5] = target: T3, FjGH65A (Flavobacterium johnsoniae, UniProt A5FBJ5, E616Q); experiment: hydrolysis activity; format: biochemical; conditions: general base catalyst mutant
T3 construct: gene Fjoh_4428; residues 24-681, signal peptide removed, N-terminal His6 tag (pET28a), E. coli BL21(DE3); hexamer (433 kDa by gel filtration)
T3 sequence (A5FBJ5 24-681 E616Q): as the sequence (A5FBJ5 24-681 E472Q) above, with Q449E, E593Q counted along it

[6] = substrate: OC[C@H]1O[C@H](F)[C@H](O)[C@@H](O)[C@@H]1O; experiment: hydrolysis kinetics (assay details for this substrate not stated); format: biochemical, Flavobacterium johnsoniae; conditions: kinetic conditions for this substrate not stated
Description: hydrolysis kinetics (assay details for this substrate not stated) on FjGH65A

OC[C@H]1O[C@@H](O)[C@H](O)[C@@H](O)[C@@H]1O [β-glucose]
X-ray crystal structure of the complex, 1.40 Å (FjGH65A [1]): Each monomer of FjGH65A binds four β-glucose molecules

FjGH65A (Fjoh_4428), GH65 α-1,2-glucosidase from Flavobacterium johnsoniae (enzyme)
stoichiometry N [2]: 6
stoichiometry N [3]: 6

OC[C@H]1O[C@H](O[C@H]2C(O)O[C@H](CO)[C@@H](O)[C@@H]2O)[C@H](O)[C@@H](O)[C@@H]1O (mixture of isomers) [Kojibiose]
activity (% of wild type) (FjGH65A [4]): < 0.1%
activity (% of wild type) (FjGH65A [5]): < 0.1%

B1: FjGH65A (Flavobacterium johnsoniae UW101) (protein)
chain: QDPWKLSADKPDSNNYYGETVANGMIGIISSPEPLKVKEVVLAGTYDIYKRGRVSSFIPNYNLLNMKLAFNGESVQTYNINNYKQELDMRNGAFTGSFQFKDLATVTYSYYALRHLPHCIMMVVNINTQKDTEINVENLLETPSSLNNQQNYFQNITNTHVNIPLLTSVAFTPTGRSKIAVSNTFLFDEGKKLQPEILHRMNDADMHAMSFDKKIKAGKTYSFALIGSLISSDHINDPYNEAERLTIYAALEGKSRLLNRHMQEWNSLWQSDIQVEGDPQAQQDIRSMLYHLYSFTRKSTSLSPSPMGLSGLGYNGHVFWDTEIWMFPPMLLLHPEIAKSMIEYRYQRLDAARKKAAIYGYDGAMFPWESADSGAEETPVNALTGAFEHHVTGDVAIAAWQYYLVTGDKEWLKEKGWPILKATAEFWASRVEKNDKGEYEIKNVVAADEWAENIDNNAYTNGTAIRNLQYASKCATVLGVIAPKEWTLIADKILISKMSNGVTREHDSYTDQNIKQADANLLAYPLKLITDKEQIERDLKYYQTKIPQSDTPAMTQAIFSLLYSRLEDSDQAYHWFKDAYQPNLNPPFRVISECKGGTNPYFSTGAGGVLQAVIMGFGGLDIDAAGGIKQVKSVLPKNWKKLTITGIGIEKKTFVLTH
notes: residues 24-681, signal peptide removed, N-terminal His6 tag (pET28a), E. coli BL21(DE3); hexamer (433 kDa by gel filtration)
Km [6]: 3.1 ± 0.2 mM
kcat [6]: 56.1 ± 1.8 s⁻¹
kcat/Km [6]: 18100 M⁻¹ s⁻¹
